Experimental data published in PMC4063679 (Structure (London, England : 1993), 2011).
Where two headings read alike, the source gives them in different places. Where no end group is shown, it is not given here.

What was measured:
[1] = biological target: T1, His-tagged I-BAR domain of IRSp53, wild type (human, UniProt Q9UQB8-4 1-250); experiment: ITC
T1 sequence: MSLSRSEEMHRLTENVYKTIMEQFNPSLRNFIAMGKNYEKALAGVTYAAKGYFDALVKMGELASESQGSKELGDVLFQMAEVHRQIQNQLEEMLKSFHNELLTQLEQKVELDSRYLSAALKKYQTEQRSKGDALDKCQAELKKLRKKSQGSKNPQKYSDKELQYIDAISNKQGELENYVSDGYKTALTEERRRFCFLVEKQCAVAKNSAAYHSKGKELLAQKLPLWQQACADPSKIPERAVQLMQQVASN

[2] = biological target: T1, His-tagged I-BAR domain of IRSp53, wild …; experiment: ITC; remark: listed apart in the source

Binder | Kd [1] | Kd [2]
SEVVNPYAEVGG-NH2 [EPEC Tir-derived 12-mer peptide SEVVNPYAEVGG (residues 448-459)] | 37 ± 14 µM | –
GTVQNPYADVKT-NH2 [EHEC Tir-derived dodecapeptide GTVQNPYADVKT (residues 452-463)] | – | 59 ± 10 µM
